The values below come from US20210361776A1 (Seagen, published 2021).

Like-named read-outs stand apart in the source and are kept apart here.

Test [1] addresses T1, human Glypican 3 (GPC3) on GPC3-positive cells (human, UniProt P51654 25-554).
T1 construct: whole, on cells; the methods say only 'GPC3-positive cells'; also called hGPC3
In words: competition with AlexaFluor-488 labeled mGPC3-1 on GPC3-positive cells, flow cytometry. How it is done:
(§1) Cells were centrifuged, washed 3 times with PBS, and resuspended in 125 μL of a PBS+2% FBS solution. […] The EC50 was extrapolated by fitting the data to a sigmoidal dose-response curve with variable slope.
(A flow cytometer gives signals particle by particle.)

Test [2] deals with T2, Human GPC3 (hGPC3 GP3-H5258, AcroBiosystems), biotinylated (human, UniProt P51654 25-559, biotinylated with Pierce NHS-LC-LC-Biotin at 1.5:1 biotin/protein ratio).
T2 construct: Bought protein; also called immobilized hGPC3
T2 sequence (P51654 25-559 limits assumed): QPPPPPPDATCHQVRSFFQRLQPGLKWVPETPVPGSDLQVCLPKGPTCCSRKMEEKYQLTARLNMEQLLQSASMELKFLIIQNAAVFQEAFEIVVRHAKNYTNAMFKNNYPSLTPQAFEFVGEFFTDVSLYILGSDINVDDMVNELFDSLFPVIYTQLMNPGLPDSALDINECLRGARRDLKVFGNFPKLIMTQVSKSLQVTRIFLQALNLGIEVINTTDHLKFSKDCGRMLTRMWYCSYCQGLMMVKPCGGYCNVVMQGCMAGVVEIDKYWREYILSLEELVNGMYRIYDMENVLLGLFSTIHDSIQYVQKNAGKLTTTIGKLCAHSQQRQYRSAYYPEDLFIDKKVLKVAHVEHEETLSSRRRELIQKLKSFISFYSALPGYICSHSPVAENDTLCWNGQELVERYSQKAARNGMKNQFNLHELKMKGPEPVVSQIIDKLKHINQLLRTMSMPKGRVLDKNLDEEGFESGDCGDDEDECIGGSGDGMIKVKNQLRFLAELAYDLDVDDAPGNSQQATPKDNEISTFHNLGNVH
In words: BLI (Octet Red 384), biotinylated hGPC3 on SAX biosensors, hGPC3-1ec as analyte, bivalent binding, 1:1 fit, dissociation 1800 sec; bivalent binding, kinetic 1:1 fit, disassociation of 1800 sec. Here is the method:
(§2) Human GPC3 (hGPC3 GP3-H5258) was purchased from AcroBiosystems and biotinylated using Pierce NHS-LC-LC-Biotin at a molar ratio of 1.5:1 biotin/protein ratio. Biolayer interferometry (BLI) was performed on an Octet Red 384 system (ForteBio) with High Precision Streptavidin (SAX) Biosensors and GPC3 as the probe using hGPC3-1ec as the analyte.
On the technique in general: In BLI a coated tip is dipped into the sample, and binding shifts an interference pattern.

In test [3] the target is T2, Human GPC3 (hGPC3 GP3-H5258, …). In words: BLI (Octet Red 384), biotinylated hGPC3 on SAX biosensors, hGPC3-1ec as analyte, bivalent binding, 1:1 fit; bivalent binding, kinetic 1:1 fit (kdiss/kon). How it is done: as §2
Test [4] has the same target. In words: BLI (Octet Red 384), biotinylated hGPC3 on SAX biosensors, hGPC3-1ec as analyte, bivalent binding, 1:1 fit, association 600 sec; bivalent binding, kinetic 1:1 fit, association of 600 sec. How it is done:
as §2

The target is the same in test [5]. Nature of the test: BLI/SPR steady state: 600 second maximum response against concentration, half maximal binding (FIG. 6); binding affinity from FIG. 6, not the bivalent kinetic fit. Here is the method:
(Left) Multiple sensorgrams represent several concentrations (400, 160, 64, 25.6, 10.2, 4.1, and 1.64 nM) of hGPC3-1ec associating with immobilized hGPC3. (Right) The KD was determined by plotting the 600 second maximum response for each concentration and was defined by half maximal binding.
as §2

Test [6] concerns the target T1, human Glypican 3 (GPC3) on …. Nature of the test: competition with AlexaFluor-488 labeled mGPC3-1 on GPC3-positive cells, flow cytometry. How it is done: as §1
This is another data set of the same source.

Broadly, the EC50 is the midpoint of the concentration-response curve. The koff is a measure of how fast the partners let go of each other. What is called kon is the rate constant with which the complex forms.

T1 sequence (P51654 25-554 limits assumed): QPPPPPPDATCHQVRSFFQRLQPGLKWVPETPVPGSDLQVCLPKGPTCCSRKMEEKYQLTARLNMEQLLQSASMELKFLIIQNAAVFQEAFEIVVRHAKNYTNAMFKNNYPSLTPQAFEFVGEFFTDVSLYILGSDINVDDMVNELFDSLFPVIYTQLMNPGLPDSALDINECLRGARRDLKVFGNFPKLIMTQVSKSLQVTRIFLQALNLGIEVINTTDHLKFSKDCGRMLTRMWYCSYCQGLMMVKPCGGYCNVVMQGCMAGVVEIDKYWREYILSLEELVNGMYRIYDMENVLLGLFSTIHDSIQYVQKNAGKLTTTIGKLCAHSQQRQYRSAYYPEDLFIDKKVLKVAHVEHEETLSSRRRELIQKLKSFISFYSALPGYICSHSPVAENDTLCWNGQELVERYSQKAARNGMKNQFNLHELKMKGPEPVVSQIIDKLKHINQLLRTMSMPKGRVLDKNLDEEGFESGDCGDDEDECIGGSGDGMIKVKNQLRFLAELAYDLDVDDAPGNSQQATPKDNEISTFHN

B1: hGPC3-1 HCLB (antibody, V domains shown)
VH: EVQLVQSGAEVKKPGATVKISCKASGYTFTDYEMHWVQQAPGKGLEWIGGIDPETGGTAYNQKFKGRATLTADKSTDTAYMELSSLRSEDTAVYYCGRYYSFAYWGQGTLVTVSS
VL: DVVMTQSPLSLPVTLGQPASISCRSSQSIVHSNGNTYLQWFQQRPGQSPRLLIYKVSNRFSGVPDRFSGSGSGTDFTLKISRVEAEDVGVYYCFQVSHVPYTFGQGTKLEIK
notes: Kabat positions
Molecule B1 displayed a 50% effective concentration (EC50) in test [1] of 18 nM.

B2: hGPC3-1ec (HBLE) (antibody, V domains shown)
VH: EVQLVQSGAEVKKPGATVKISCKVSGYTFTDYEMHWVQQAPGKGLEWMGGIDPETGGTAYNQKFKGRVTLTADKSTDTAYMELSSLRSEDTAVYYCGRYYSFAYWGQGTLVTVSS
VL: DVVMTQSPLSLPVTLGQPASISCRSSQSIVHSNANTYLQWFQQRPGQSPRLLIYKVSNRFSGVPDRFSGSGSGTDFTLKISRVEAEDVGVYYCFQVSHVPYTFGQGTKLEIK
notes: HBLE variable regions on IgG1 with a cysteine substitution at position 239 of the heavy chain (S239C, EU index); 'ec' marks this; Tested unconjugated; also called humanized GPC3-1ec
On to B2, for which, in test [2], the koff came to 2.3e-05 s⁻¹. The values for the Kd in test [3] and in test [5] were 0.204 nM and 14 nM, respectively. For the same molecule, the kon in test [4] was 113000 M⁻¹ s⁻¹.

B3: hGPC3-1 HALC (antibody, V domains shown)
VH: QVQLVQSGAEVKKPGASVKVSCKASGYTFTDYEMHWVRQAPGQGLEWIGGIDPETGGTAYNQKFKGRATLTADTSTSTAYMELRSLRSDDTAVYYCARYYSFAYWGQGTLVTVSS
VL: DVVMTQSPLSLPVTLGQPASISCRSSQSIVHSNGNTYLQWFQQRPGQSPKLLIYKVSNRFSGVPDRFSGSGSGTDFTLKISRVEAEDVGVYYCFQVSHVPYTFGQGTKLVMK
notes: Kabat positions
For B3, the 50% effective concentration (EC50) in test [1] stood at 63 nM.

B4: hGPC3-1 HCLC (antibody, V domains shown)
VH: EVQLVQSGAEVKKPGATVKISCKASGYTFTDYEMHWVQQAPGKGLEWIGGIDPETGGTAYNQKFKGRATLTADKSTDTAYMELSSLRSEDTAVYYCGRYYSFAYWGQGTLVTVSS
VL: DVVMTQSPLSLPVTLGQPASISCRSSQSIVHSNGNTYLQWFQQRPGQSPKLLIYKVSNRFSGVPDRFSGSGSGTDFTLKISRVEAEDVGVYYCFQVSHVPYTFGQGTKLVMK
notes: Kabat positions
As for B4, in test [1], the EC50 was determined as 19 nM.

B5: hGPC3-1 HALB (antibody, V domains shown)
VH: QVQLVQSGAEVKKPGASVKVSCKASGYTFTDYEMHWVRQAPGQGLEWIGGIDPETGGTAYNQKFKGRATLTADTSTSTAYMELRSLRSDDTAVYYCARYYSFAYWGQGTLVTVSS
VL: DVVMTQSPLSLPVTLGQPASISCRSSQSIVHSNGNTYLQWFQQRPGQSPRLLIYKVSNRFSGVPDRFSGSGSGTDFTLKISRVEAEDVGVYYCFQVSHVPYTFGQGTKLEIK
notes: Kabat position
In test [1], B5 yielded a concentration giving a half-maximal response (EC50) of 91 nM.

B6: hGPC3-1 HCLA (antibody, V domains shown)
VH: EVQLVQSGAEVKKPGATVKISCKASGYTFTDYEMHWVQQAPGKGLEWIGGIDPETGGTAYNQKFKGRATLTADKSTDTAYMELSSLRSEDTAVYYCGRYYSFAYWGQGTLVTVSS
VL: DVVMTQSPLSLPVTLGQPASISCRSSQSIVHSNGNTYLQWFQQRPGQSPRRLIYKVSNRFSGVPDRFSGSGSGTDFTLKISRVEAEDVGVYYCFQVSHVPYTFGQGTKLEIK
notes: Kabat positions
In turn, B6 yielded an EC50 in test [1] of 76 nM.

B7: hGPC3-1 HBLD (antibody, V domains shown)
VH: EVQLVQSGAEVKKPGATVKISCKVSGYTFTDYEMHWVQQAPGKGLEWMGGIDPETGGTAYNQKFKGRVTLTADKSTDTAYMELSSLRSEDTAVYYCGRYYSFAYWGQGTLVTVSS
VL: DVVMTQSPLSLPVTLGQPASISCRSSQSIVHSDGNTYLQWFQQRPGQSPRLLIYKVSNRFSGVPDRFSGSGSGTDFTLKISRVEAEDVGVYYCFQVSHVPYTFGQGTKLEIK
notes: Kabat positions
Molecule B7 gave an EC50 in test [6] of 74 nM.

B8: hGPC3-1 HBLE (antibody, V domains shown)
VH: EVQLVQSGAEVKKPGATVKISCKVSGYTFTDYEMHWVQQAPGKGLEWMGGIDPETGGTAYNQKFKGRVTLTADKSTDTAYMELSSLRSEDTAVYYCGRYYSFAYWGQGTLVTVSS
VL: DVVMTQSPLSLPVTLGQPASISCRSSQSIVHSNANTYLQWFQQRPGQSPRLLIYKVSNRFSGVPDRFSGSGSGTDFTLKISRVEAEDVGVYYCFQVSHVPYTFGQGTKLEIK
notes: Only variable regions are tied to the antibody; also called lead humanized GPC3-1 antibody
Turning to B8, the EC50 in test [6] was found to be 3 nM.

B9: hGPC3-1 HDLA (antibody, V domains shown)
VH: EVQLVQSGAEVKKPGATVKISCKASGYTFTDYEMHWVKQAPGKGLEWIGGIDPETGGTAYNQKFKGKATLTADKSTDTAYMELSSLRSEDTAVYYCGRYYSFAYWGQGTLVTVSS
VL: DVVMTQSPLSLPVTLGQPASISCRSSQSIVHSNGNTYLQWFQQRPGQSPRRLIYKVSNRFSGVPDRFSGSGSGTDFTLKISRVEAEDVGVYYCFQVSHVPYTFGQGTKLEIK
notes: Kabat positions
On to B9, for which the EC50 in test [1] is 149 nM.

B10: hGPC3-1 HBLC (antibody, V domains shown)
VH: EVQLVQSGAEVKKPGATVKISCKVSGYTFTDYEMHWVQQAPGKGLEWMGGIDPETGGTAYNQKFKGRVTLTADKSTDTAYMELSSLRSEDTAVYYCGRYYSFAYWGQGTLVTVSS
VL: DVVMTQSPLSLPVTLGQPASISCRSSQSIVHSNGNTYLQWFQQRPGQSPKLLIYKVSNRFSGVPDRFSGSGSGTDFTLKISRVEAEDVGVYYCFQVSHVPYTFGQGTKLVMK
notes: Kabat positions
As for B10, the midpoint of the response in test [1], the EC50, lay at 25 nM.

B11: hGPC3-1 HDLC (antibody, V domains shown)
VH: EVQLVQSGAEVKKPGATVKISCKASGYTFTDYEMHWVKQAPGKGLEWIGGIDPETGGTAYNQKFKGKATLTADKSTDTAYMELSSLRSEDTAVYYCGRYYSFAYWGQGTLVTVSS
VL: DVVMTQSPLSLPVTLGQPASISCRSSQSIVHSNGNTYLQWFQQRPGQSPKLLIYKVSNRFSGVPDRFSGSGSGTDFTLKISRVEAEDVGVYYCFQVSHVPYTFGQGTKLVMK
notes: Kabat positions
In turn, B11 displayed an EC50 in test [1] of 13 nM.

B12: hGPC3-1 HBLB (antibody, V domains shown)
VH: EVQLVQSGAEVKKPGATVKISCKVSGYTFTDYEMHWVQQAPGKGLEWMGGIDPETGGTAYNQKFKGRVTLTADKSTDTAYMELSSLRSEDTAVYYCGRYYSFAYWGQGTLVTVSS
VL: DVVMTQSPLSLPVTLGQPASISCRSSQSIVHSNGNTYLQWFQQRPGQSPRLLIYKVSNRFSGVPDRFSGSGSGTDFTLKISRVEAEDVGVYYCFQVSHVPYTFGQGTKLEIK
notes: Kabat position
In the case of B12, the EC50 in test [1] amounted to 14 nM; in test [6], 3 nM.

B13: hGPC3-1 HBLA (antibody, V domains shown)
VH: EVQLVQSGAEVKKPGATVKISCKVSGYTFTDYEMHWVQQAPGKGLEWMGGIDPETGGTAYNQKFKGRVTLTADKSTDTAYMELSSLRSEDTAVYYCGRYYSFAYWGQGTLVTVSS
VL: DVVMTQSPLSLPVTLGQPASISCRSSQSIVHSNGNTYLQWFQQRPGQSPRRLIYKVSNRFSGVPDRFSGSGSGTDFTLKISRVEAEDVGVYYCFQVSHVPYTFGQGTKLEIK
notes: Kabat positions
The molecule B13 came in with an EC50 in test [1] of 203 nM.

B14: hGPC3-1 HDLB (antibody, V domains shown)
VH: EVQLVQSGAEVKKPGATVKISCKASGYTFTDYEMHWVKQAPGKGLEWIGGIDPETGGTAYNQKFKGKATLTADKSTDTAYMELSSLRSEDTAVYYCGRYYSFAYWGQGTLVTVSS
VL: DVVMTQSPLSLPVTLGQPASISCRSSQSIVHSNGNTYLQWFQQRPGQSPRLLIYKVSNRFSGVPDRFSGSGSGTDFTLKISRVEAEDVGVYYCFQVSHVPYTFGQGTKLEIK
notes: Kabat positions
In turn, B14 yielded an EC50 in test [1] of 10 nM.

B15: hGPC3-1 HBLB-V (antibody, V domains shown)
VH: EVQLVQSGAEVKKPGATVKISCKVSGYTFTDYEMHWVQQAPGKGLEWMGGIDPETGGTAYNQKFKGRVTLTADKSTDTAYMELSSLRSEDTAVYYCGRYYSFAYWGQGTLVTVSS
VL: DVVMTQSPLSLPVTLGQPASISCRSSQSIVHSNVNTYLQWFQQRPGQSPRLLIYKVSNRFSGVPDRFSGSGSGTDFTLKISRVEAEDVGVYYCFQVSHVPYTFGQGTKLEIK
notes: Kabat position
B15 displayed an EC50 in test [6] of 4 nM.

B16: hGPC3-1 HBLB-Q (antibody, V domains shown)
VH: EVQLVQSGAEVKKPGATVKISCKVSGYTFTDYEMHWVQQAPGKGLEWMGGIDPETGGTAYNQKFKGRVTLTADKSTDTAYMELSSLRSEDTAVYYCGRYYSFAYWGQGTLVTVSS
VL: DVVMTQSPLSLPVTLGQPASISCRSSQSIVHSQGNTYLQWFQQRPGQSPRLLIYKVSNRFSGVPDRFSGSGSGTDFTLKISRVEAEDVGVYYCFQVSHVPYTFGQGTKLEIK
notes: Kabat positions
With B16, in test [6], the EC50 turned out to be 7 nM.

B17: murine GPC3-1 antibody (antibody, V domains shown)
VH: QVQLQQSGAELVRPGASVTLSCKASGYTFTDYEMHWVKQTPVHGLEWIGGIDPETGGTAYNQKFKGKATLTADKSSSTAYMDLRSLTSEDSAVYYCGRYYSFAYWGQGTLVTVSA
VL: DVLMTQTPLSLPLSLGDQASISCRSSQSIVHSNGNTYLQWFLQKPGQSPKLLIYKVSNRFSGVPDRFSGSGSGTDFTLKIGRVEAEDLGVYYCFQVSHVPYTFGGGTKLVMK
notes: Murine hybridoma IgG; also called mGPC3-1
Regarding B17, a half-maximal response in test [1] (EC50) required 9 nM.
